{
  "source": "patent US9872831B2",
  "about": "(ALFASIGMA S.P.A., priority 2011, dated 2018)",
  "key": {"[1]": {"assay": "Uptake of i.v. 111In-ST2210 in lung and non target organs 24 h after inhalation exposure", "protocol": "Twenty Sprague Dawley rats were divided in three different groups.\nAll rats were sacrificed 2 hours after the i.v. administration of ^111In-ST2210, and samples of blood, spleen, kidney, liver, stomach, brain, trachea, and tissue samples of different portions of lung were collected, weighed and analyzed with the use of a gamma-counter (Perkin Elmer). Data were expressed as the % of injected dose/gram of tissue (% ID/g)."}, "[2]": {"assay": "Chemical integrity of oxidized avidin after nebulisation (HPLC)", "format": "physicochemical", "conditions": "3.0 mg/ml in 100 mM sodium acetate pH 5.5, nebulised 1 hour at room temperature", "from_the_text": "The particle size of the protein solution midst was 5 μm. The nebulised solution was recovered in a falcon tube and analyzed by HPLC."}, "[3]": {"assay": "Linkage of instilled oxidized avidin to surgically lesioned bladder, PET with i.v. 68-Ga-ST2210", "format": "in vivo, pig", "conditions": "1 h instillation, PET 4 h after 68-Ga-ST2210 i.v.", "description": "Anesthetised female pig of about 40 kg was subjected to surgery to generate two 2 cm superficial lesions on the bladder wall. […] Bladder was then washed with saline and 0.5 μg 68-Ga-ST2210 was i.v. administered. After 4 hours the pig was subjected to PET."}, "A431 cells": {"system": "A431 cells", "assay": "Inhibition of proliferation, Cell Titer Glow assay", "format": "cell-based, Human", "conditions": "oxidized avidin alone compared with medium only (data not shown)", "description": "Proliferation inhibition was measured by Cell Titer Glow assay, Promega."}, "[4]": {"assay": "Immunohistochemistry of lung sections with anti-avidin antibody after aerosol exposure", "format": "in vivo, Balb/c mice", "conditions": "24 hours after aerosol exposure", "description": "The lungs were removed and fixed in formalin and paraffin embedded. Serial sections obtained by means of a microtome were processed and incubated with a HRP-conjugated rabbit anti-avidin antibody (GeneTex, USA) and then with DAB substrate."}, "[5]": {"assay": "Biodistribution of i.v. 111In-ST2210 after nebulised oxidized avidin", "format": "in vivo, Balb/c mice", "conditions": "nebulised 1 hour (about 90 mg/kg); 111In-ST2210 i.v. 24 h later; sacrifice after 2 or 24 hours", "description": "A biodistribution experiment aimed at determining the lung uptake selectivity and stability of ^111In-ST2210 was conducted. […] Twenty four hours after, all mice received ^111In-ST2210 intravenously (i.e., 1 μg in 0.2 ml of saline), and after further 2 or 24 hours, the animals were sacrificed by CO2 asphyxia. The lung and non target organs were collected weighed and counted in a gamma counter."}, "[6]": {"assay": "PET imaging of i.v. 64Cu-ST2210 after nebulised oxidized avidin", "format": "in vivo, Balb/c mice", "conditions": "64Cu-ST2210 1 μg i.v. 24 h after aerosol; PET 4 hours after", "description": "After 24 hours, they received an intravenous 1 μg dose of ^64Cu-ST2210. ^64Cu-ST2210 distribution was examined by PET imaging 4 hours after. […] Kidneys, bladder are visible in both groups of mice. This observation is consistent with the physiological elimination of ST2210 at that time point."}},
  "data": [
    {"substance": "Oxidized avidin: chemically oxidized avidin according to example 1 of WO2009016031, about 8 to 15 aldehyde moieties", "values": [
      {"measurement": "111In-ST2210 % ID/g Blood", "setting": "[1]; Blood, 2 h after i.v. 111In-ST2210, 24 h after inhalation (about 10 mg/kg)", "value": "0.012 ± 0.004", "unit": "% ID/g"},
      {"measurement": "111In-ST2210 % ID/g Kidney", "setting": "[1]; Kidney, 2 h after i.v. 111In-ST2210, 24 h after inhalation", "value": "0.414 ± 0.033", "unit": "% ID/g"},
      {"measurement": "111In-ST2210 % ID/g Liver", "setting": "[1]; Liver, 2 h after i.v. 111In-ST2210, 24 h after inhalation", "value": "0.051 ± 0.005", "unit": "% ID/g"},
      {"measurement": "111In-ST2210 % ID/g Lung dx (caudal lobe)", "setting": "[1]; Lung dx (caudal lobe), 2 h after i.v. 111In-ST2210, 24 h after inhalation", "value": "0.055 ± 0.009", "unit": "% ID/g"},
      {"measurement": "111In-ST2210 % ID/g Lung dx (cranial, middle and accessory lobe)", "setting": "[1]; Lung dx (cranial, middle and accessory lobe), 2 h after i.v. 111In-ST2210, 24 h after inhalation", "value": "0.055 ± 0.011", "unit": "% ID/g"},
      {"measurement": "111In-ST2210 % ID/g Lung sn", "setting": "[1]; Lung sn, 2 h after i.v. 111In-ST2210, 24 h after inhalation", "value": "0.053 ± 0.008", "unit": "% ID/g"},
      {"measurement": "111In-ST2210 % ID/g Lung", "setting": "[1]; Lung, 2 h after i.v. 111In-ST2210, 24 h after inhalation", "value": "0.054 ± 0.009", "unit": "% ID/g"},
      {"measurement": "111In-ST2210 % ID/g Spleen", "setting": "[1]; Spleen, 2 h after i.v. 111In-ST2210, 24 h after inhalation", "value": "0.032 ± 0.002", "unit": "% ID/g"},
      {"measurement": "111In-ST2210 % ID/g Stomach", "setting": "[1]; Stomach, 2 h after i.v. 111In-ST2210, 24 h after inhalation", "value": "0.276 ± 0.246", "unit": "% ID/g"},
      {"measurement": "111In-ST2210 % ID/g Trachea", "setting": "[1]; Trachea, 2 h after i.v. 111In-ST2210, 24 h after inhalation", "value": "0.029 ± 0.007", "unit": "% ID/g"},
      {"measurement": "organ linkage of nebulised oxidized avidin", "setting": "[1]; lung versus trachea", "value": "bound to the lung but not to the trachea"},
      {"measurement": "HPLC elution profile pre and post nebulisation", "setting": "[2]", "value": "same elution profile"},
      {"measurement": "binding to bladder tissue", "setting": "[3]; intact bladder tissue", "value": "completely inert"},
      {"measurement": "binding to bladder tissue", "setting": "[3]; region subjected to surgery", "value": "enabled the binding of oxidized avidin"},
      {"measurement": "effect on cell proliferation", "setting": "A431 cells", "value": "did not affect cell proliferation"},
      {"measurement": "distribution of oxidized avidin in the lung", "setting": "[4]", "value": "homogenous in all lung compartments"},
      {"measurement": "localisation of oxidized avidin in lung sections", "setting": "[4]", "value": "presence of oxidized avidin at broncho/epithelial level down to terminal bronchioles"},
      {"measurement": "uptake of 111In-ST2210 in the lung", "setting": "[5]", "value": "specific and significant uptake"},
      {"measurement": "64Cu-ST2210 PET signal in the lungs", "setting": "[6]", "value": "presence of a radioactive signal in the lungs"}
    ]}
  ]
}
